Data on 4 molecules can be found in patent publication US20140087995A1 (published 2014).

In assay [1] the target is T1, human amylin receptor (amylin 3(a) receptor: human calcitonin receptor with RAMP-3) (human, UniProt P30988 25-474; O60896 24-148, limits assumed).
T1 construct: whole, on cells; Whole cells in the luciferase assay (Assay II a); also called hAmylin-R; hAmylinR
T1 sequence (looked up) 1: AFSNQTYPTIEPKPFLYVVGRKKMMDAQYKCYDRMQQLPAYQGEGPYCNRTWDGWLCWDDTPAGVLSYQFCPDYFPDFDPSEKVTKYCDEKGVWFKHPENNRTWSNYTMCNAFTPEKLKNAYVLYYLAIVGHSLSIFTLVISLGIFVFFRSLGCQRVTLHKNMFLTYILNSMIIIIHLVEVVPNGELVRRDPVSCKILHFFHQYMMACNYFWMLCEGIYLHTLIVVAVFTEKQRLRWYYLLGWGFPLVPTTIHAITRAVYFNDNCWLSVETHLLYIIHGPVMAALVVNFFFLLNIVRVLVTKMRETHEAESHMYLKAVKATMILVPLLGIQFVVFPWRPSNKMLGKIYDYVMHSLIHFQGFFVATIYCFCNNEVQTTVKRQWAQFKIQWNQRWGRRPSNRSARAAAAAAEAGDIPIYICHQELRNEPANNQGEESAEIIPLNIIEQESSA
T1 sequence (looked up) 2: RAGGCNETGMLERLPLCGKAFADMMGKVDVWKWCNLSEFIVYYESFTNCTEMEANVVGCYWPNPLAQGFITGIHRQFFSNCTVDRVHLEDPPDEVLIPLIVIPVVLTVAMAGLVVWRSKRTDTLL
As to the kind of experiment: SPA competition binding on membranes of BHK cells with human calcitonin receptor + RAMP-3; displacement of 125I-rat amylin (Assay V). The method in brief: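 SPA beads + BHK amylin 3(a)/CRE-luc membranes, 35 ng/μL final; buffer 50 mM Hepes pH 7.4, 1 mM CaCl2, 5 mM MgCl₂, 0.1% OA, 0.02% Tween20. 120 min, 25° C, shaken; scintillation count. IC₅₀ by one-site binding competition fit, taken as receptor affinity.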
A general note: Loss of bound radioactivity is the signal in a displacement assay; it reports binding, not function.

In assay [2] the target is T2, human calcitonin receptor (human, UniProt P30988 25-474).
T2 sequence (looked up): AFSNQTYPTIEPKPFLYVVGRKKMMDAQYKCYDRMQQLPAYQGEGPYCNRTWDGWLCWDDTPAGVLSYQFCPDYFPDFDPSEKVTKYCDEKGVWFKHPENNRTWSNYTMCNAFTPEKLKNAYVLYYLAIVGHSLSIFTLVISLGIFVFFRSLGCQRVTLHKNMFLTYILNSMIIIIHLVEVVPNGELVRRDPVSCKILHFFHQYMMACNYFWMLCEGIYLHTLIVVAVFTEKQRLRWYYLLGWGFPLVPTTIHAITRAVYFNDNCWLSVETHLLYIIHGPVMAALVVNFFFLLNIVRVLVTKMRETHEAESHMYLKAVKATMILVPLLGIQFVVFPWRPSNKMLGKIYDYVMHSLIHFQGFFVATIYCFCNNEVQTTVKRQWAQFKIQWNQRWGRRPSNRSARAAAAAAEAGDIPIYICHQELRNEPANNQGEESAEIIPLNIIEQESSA
In words: cell-based or functional assay.

Numbered stars: 1 amine (or outer) side, 2 acyl side, 3 side chain; on linkers, the order of the positions; unused ones are H or OH. Bridge positions count the residues as written; N and C are the ends. Square brackets hold non-standard residues; d marks the D form. Side chains are listed from the residue outwards. Ends that are not written are not given here. * marks the point of attachment. C20 diacid = O=C(O)CCCCCCCCCCCCCCCCCCC(=O)*; γGlu = O=C(O)[C@H](CCC(=O)[*:2])N[*:1]

B1: N^ε1-[(4S)-4-carboxy-4-[[(4S)-4-carboxy-4-(19-carboxynonadecanoylamino)butanoyl]amino]butanoyl]-[D-Asp14,Arg17,Pro21,Pro27,Arg35]-h-amylin (peptide)
peptide: K([γGlu-γGlu-C20 diacid])CNTATCATQRLA[dD]FLRHSSPNFGAIPSSTNVGSRTY-NH2
modifications: disulfide 2-7; N-terminus assumed
SMILES: CC[C@H](C)[C@H](NC(=O)[C@H](C)NC(=O)CNC(=O)[C@H](Cc1ccccc1)NC(=O)[C@H](CC(N)=O)NC(=O)[C@@H]1CCCN1C(=O)[C@H](CO)NC(=O)[C@H](CO)NC(=O)[C@H](Cc1c[nH]cn1)NC(=O)[C@H](CCCNC(=N)N)NC(=O)[C@H](CC(C)C)NC(=O)[C@H](Cc1ccccc1)NC(=O)[C@@H](CC(=O)O)NC(=O)[C@H](C)NC(=O)[C@H](CC(C)C)NC(=O)[C@H](CCCNC(=N)N)NC(=O)[C@H](CCC(N)=O)NC(=O)[C@@H](NC(=O)[C@H](C)NC(=O)[C@@H]1CSSC[C@H](NC(=O)[C@@H](N)CCCCNC(=O)CC[C@H](NC(=O)CC[C@H](NC(=O)CCCCCCCCCCCCCCCCCCC(=O)O)C(=O)O)C(=O)O)C(=O)N[C@@H](CC(N)=O)C(=O)N[C@@H]([C@@H](C)O)C(=O)N[C@@H](C)C(=O)N[C@@H]([C@@H](C)O)C(=O)N1)[C@@H](C)O)C(=O)N1CCC[C@H]1C(=O)N[C@@H](CO)C(=O)N[C@@H](CO)C(=O)N[C@H](C(=O)N[C@@H](CC(N)=O)C(=O)N[C@H](C(=O)NCC(=O)N[C@@H](CO)C(=O)N[C@@H](CCCNC(=N)N)C(=O)N[C@H](C(=O)N[C@@H](Cc1ccc(O)cc1)C(N)=O)[C@@H](C)O)C(C)C)[C@@H](C)O
Take B1: the IC50 (commonly the concentration that gives 50% inhibition) in assay [1] was found to be 0.365 nM. The “hCTR funct. EC50 (pM)” value in assay [2] was 100000 pM.

B2: N^ε1-[(4S)-4-carboxy-4-[[(4S)-4-carboxy-4-(19-carboxynonadecanoylamino)butanoyl]amino]butanoyl]-[Glu14,Arg17,Pro21,Pro27,Pro34,Arg35]-h-amylin (peptide)
peptide: K([γGlu-γGlu-C20 diacid])CNTATCATQRLAEFLRHSSPNFGAIPSSTNVGPRTY-NH2
modifications: disulfide 2-7; N-terminus assumed
SMILES: CC[C@H](C)[C@H](NC(=O)[C@H](C)NC(=O)CNC(=O)[C@H](Cc1ccccc1)NC(=O)[C@H](CC(N)=O)NC(=O)[C@@H]1CCCN1C(=O)[C@H](CO)NC(=O)[C@H](CO)NC(=O)[C@H](Cc1c[nH]cn1)NC(=O)[C@H](CCCNC(=N)N)NC(=O)[C@H](CC(C)C)NC(=O)[C@H](Cc1ccccc1)NC(=O)[C@H](CCC(=O)O)NC(=O)[C@H](C)NC(=O)[C@H](CC(C)C)NC(=O)[C@H](CCCNC(=N)N)NC(=O)[C@H](CCC(N)=O)NC(=O)[C@@H](NC(=O)[C@H](C)NC(=O)[C@@H]1CSSC[C@H](NC(=O)[C@@H](N)CCCCNC(=O)CC[C@H](NC(=O)CC[C@H](NC(=O)CCCCCCCCCCCCCCCCCCC(=O)O)C(=O)O)C(=O)O)C(=O)N[C@@H](CC(N)=O)C(=O)N[C@@H]([C@@H](C)O)C(=O)N[C@@H](C)C(=O)N[C@@H]([C@@H](C)O)C(=O)N1)[C@@H](C)O)C(=O)N1CCC[C@H]1C(=O)N[C@@H](CO)C(=O)N[C@@H](CO)C(=O)N[C@H](C(=O)N[C@@H](CC(N)=O)C(=O)N[C@H](C(=O)NCC(=O)N1CCC[C@H]1C(=O)N[C@@H](CCCNC(=N)N)C(=O)N[C@H](C(=O)N[C@@H](Cc1ccc(O)cc1)C(N)=O)[C@@H](C)O)C(C)C)[C@@H](C)O
notes: also called compound 110
As for B2, the IC50 in assay [1] is 0.326 nM. Moreover, in assay [2], the “Ratio hCT/hAmylin funct.” value amounted to 29.3 ratio and the “hCTR funct. EC50 (pM)” value is 8160 pM.

B3: N^ε1-[(4S)-4-carboxy-4-[[(4S)-4-carboxy-4-(19-carboxynonadecanoylamino)butanoyl]amino]butanoyl]-[Asp14,Arg17,Pro21,Pro27,Pro34,Arg35]-h-amylin (peptide)
peptide: K([γGlu-γGlu-C20 diacid])CNTATCATQRLADFLRHSSPNFGAIPSSTNVGPRTY-NH2
modifications: disulfide 2-7; N-terminus assumed
SMILES: CC[C@H](C)[C@H](NC(=O)[C@H](C)NC(=O)CNC(=O)[C@H](Cc1ccccc1)NC(=O)[C@H](CC(N)=O)NC(=O)[C@@H]1CCCN1C(=O)[C@H](CO)NC(=O)[C@H](CO)NC(=O)[C@H](Cc1c[nH]cn1)NC(=O)[C@H](CCCNC(=N)N)NC(=O)[C@H](CC(C)C)NC(=O)[C@H](Cc1ccccc1)NC(=O)[C@H](CC(=O)O)NC(=O)[C@H](C)NC(=O)[C@H](CC(C)C)NC(=O)[C@H](CCCNC(=N)N)NC(=O)[C@H](CCC(N)=O)NC(=O)[C@@H](NC(=O)[C@H](C)NC(=O)[C@@H]1CSSC[C@H](NC(=O)[C@@H](N)CCCCNC(=O)CC[C@H](NC(=O)CC[C@H](NC(=O)CCCCCCCCCCCCCCCCCCC(=O)O)C(=O)O)C(=O)O)C(=O)N[C@@H](CC(N)=O)C(=O)N[C@@H]([C@@H](C)O)C(=O)N[C@@H](C)C(=O)N[C@@H]([C@@H](C)O)C(=O)N1)[C@@H](C)O)C(=O)N1CCC[C@H]1C(=O)N[C@@H](CO)C(=O)N[C@@H](CO)C(=O)N[C@H](C(=O)N[C@@H](CC(N)=O)C(=O)N[C@H](C(=O)NCC(=O)N1CCC[C@H]1C(=O)N[C@@H](CCCNC(=N)N)C(=O)N[C@H](C(=O)N[C@@H](Cc1ccc(O)cc1)C(N)=O)[C@@H](C)O)C(C)C)[C@@H](C)O
notes: also called compound 130
As for B3, the IC50 in assay [1] worked out at 0.453 nM. For the same molecule, in assay [2], the “Ratio hCT/hAmylin funct.” value stood at 44.9 ratio and the “hCTR funct. EC50 (pM)” value was determined as 7280 pM.

B4: N^ε1-[(4S)-4-carboxy-4-[[(4S)-4-carboxy-4-(19-carboxynonadecanoylamino)butanoyl]amino]butanoyl]-[Glu14,Arg17,Pro21,Pro27,Arg35]-h-amylin (peptide)
peptide: K([γGlu-γGlu-C20 diacid])CNTATCATQRLAEFLRHSSPNFGAIPSSTNVGSRTY-NH2
modifications: disulfide 2-7; N-terminus assumed
SMILES: CC[C@H](C)[C@H](NC(=O)[C@H](C)NC(=O)CNC(=O)[C@H](Cc1ccccc1)NC(=O)[C@H](CC(N)=O)NC(=O)[C@@H]1CCCN1C(=O)[C@H](CO)NC(=O)[C@H](CO)NC(=O)[C@H](Cc1c[nH]cn1)NC(=O)[C@H](CCCNC(=N)N)NC(=O)[C@H](CC(C)C)NC(=O)[C@H](Cc1ccccc1)NC(=O)[C@H](CCC(=O)O)NC(=O)[C@H](C)NC(=O)[C@H](CC(C)C)NC(=O)[C@H](CCCNC(=N)N)NC(=O)[C@H](CCC(N)=O)NC(=O)[C@@H](NC(=O)[C@H](C)NC(=O)[C@@H]1CSSC[C@H](NC(=O)[C@@H](N)CCCCNC(=O)CC[C@H](NC(=O)CC[C@H](NC(=O)CCCCCCCCCCCCCCCCCCC(=O)O)C(=O)O)C(=O)O)C(=O)N[C@@H](CC(N)=O)C(=O)N[C@@H]([C@@H](C)O)C(=O)N[C@@H](C)C(=O)N[C@@H]([C@@H](C)O)C(=O)N1)[C@@H](C)O)C(=O)N1CCC[C@H]1C(=O)N[C@@H](CO)C(=O)N[C@@H](CO)C(=O)N[C@H](C(=O)N[C@@H](CC(N)=O)C(=O)N[C@H](C(=O)NCC(=O)N[C@@H](CO)C(=O)N[C@@H](CCCNC(=N)N)C(=O)N[C@H](C(=O)N[C@@H](Cc1ccc(O)cc1)C(N)=O)[C@@H](C)O)C(C)C)[C@@H](C)O
notes: also called compound 89
For B4, the IC50 in assay [1] turned out to be 1.16 nM. Also, in assay [2], the “Ratio hCT/hAmylin funct.” value came out at 27.8 ratio and the “hCTR funct. EC50 (pM)” value stood at 11200 pM.
